# Tests used:
# [1] = target: the molecule itself; assay: cross-linking
# [2] = target: the molecule itself; assay: crystal structure
Protein,stoichiometry N [1],stoichiometry N [2]
"batCOV5-M, M protein of Pipistrellus bat coronavirus HKU5, affinity- and SEC-purified (cross-linking, MST) (natural protein) MASSNVTLSNDEVLRLVKDWNFTWSVVFLLITIVLQYGYPSRSMFVYVIKMFVLWLLWPASMALSIFCAVYPIDLASQIISGILAATSCAMWISYFVQSIRLFMRTGSWWSFNPESNCLLNVPIGGTTVVRPLVEDSTSVTAVVTDGYLKMAGMHFGACDFQRLPSEVTVAKPNVLIALKMIKRQAYGTNSGVAIYHRYKAGNYRRPPIIQDQELALLRA",≥ 2,–
"batCOV5-MCTD-sfGFP, carboxy-terminal domain of batCOV5-M between the two halves of a split superfold (domain or fragment) ESNCLLNVPIGGTTVVRPLVEDSTSVTAVVTDGYLKMAGMHFGACDFQRLPSEVTVAKPNVLIALKMIKRQAYGTNSGVAIYHRYKAGN",–,4
